# ± gives the standard deviation of the averaged measurements.
# Assay: total protein half-life in vivo (active degradation + dilution); higher = more stable protein
# [1] = E. coli NCM3722 delta-clpP delta-lon delta-hslV, growth: N-lim chemostat, doubling time 6 h
# [2] = E. coli NCM3722 delta-clpP, growth: N-lim chemostat, doubling time 6 h
# [3] = E. coli NCM3722 delta-hslV, growth: N-lim chemostat, doubling time 6 h
# [4] = E. coli NCM3722 delta-lon, growth: N-lim chemostat, doubling time 6 h
# [5] = E. coli NCM3722 delta-smpB, growth: N-lim chemostat, doubling time 6 h
# [6] = wild type E. coli NCM3722, growth: C-lim chemostat, doubling time 3 h
# [7] = wild type E. coli NCM3722, growth: C-lim chemostat, doubling time 6 h
# [8] = wild type E. coli NCM3722, growth: C-lim chemostat, doubling time 12 h
# [9] = wild type E. coli NCM3722, growth: N-lim chemostat, doubling time 6 h
# [10] = wild type E. coli NCM3722, growth: N-lim chemostat, doubling time 12 h
# [11] = wild type E. coli NCM3722, growth: P-lim chemostat, doubling time 6 h
# [12] = wild type E. coli NCM3722, growth: P-lim chemostat, doubling time 12 h
Sequence,total protein half-life in vivo [1] [h],total protein half-life in vivo [2] [h],total protein half-life in vivo [3] [h],total protein half-life in vivo [4] [h],total protein half-life in vivo [5] [h],total protein half-life in vivo [6] [h],total protein half-life in vivo [7] [h],total protein half-life in vivo [8] [h],total protein half-life in vivo [9] [h],total protein half-life in vivo [10] [h],total protein half-life in vivo [11] [h],total protein half-life in vivo [12] [h]
MSDRIDRDVINALIAGHFADPFSVLGMHKTTAGLEVRALLPDATDVWVIEPKTGRKLAKLECLDSRGFFSGVIPRRKNFFRYQLAVVWHGQQNLIDDPYRFGPLIQEMDAWLLSEGTHLRPYETLGAHADTMDGVTGTRFSVWAPNARRVSVVGQFNYWDGRRHPMRLRKESGIWELFIPGAHNGQLYKYEMIDANGNLRLKSDPYAFEAQMRPETASLICGLPEKVVQTEERKKANQFDAPISIYEVHLGSWRRHTDNNFWLSYRELADQLVPYAKWMGFTHLELLPINEHPFDGSWGYQPTGLYAPTRRFGTRDDFRYFIDAAHAAGLNVILDWVPGHFPTDDFALAEFDGTNLYEHSDPREGYHQDWNTLIYNYGRREVSNFLVGNALYWIERFGIDALRVDAVASMIYRDYSRKEGEWIPNEFGGRENLEAIEFLRNTNRILGEQVSGAVTMAEESTDFPGVSRPQDMGGLGFWYKWNLGWMHDTLDYMKLDPVYRQYHHDKLTFGILYNYTENFVLPLSHDEVVHGKKSILDRMPGDAWQKFANLRAYYGWMWAFPGKKLLFMGNEFAQGREWNHDASLDWHLLEGGDNWHHGVQRLVRDLNLTYRHHKAMHELDFDPYGFEWLVVDDKERSVLIFVRRDKEGNEIIVASNFTPVPRHDYRFGINQPGKWREILNTDSMHYHGSNAGNGGTVHSDEIASHGRQHSLSLTLPPLATIWLVREAE,6.52 ± 0.61,5.72 ± 0.24,6.65 ± 0.44,6.1 ± 0.46,6.35 ± 0.16,2.98 ± 0.15,6.06 ± 0.42,13.2 ± 0.43,5.95 ± 0.2,12.2 ± 2.1,6.35 ± 0.33,12.1 ± 1.9
MSDTNYAVIYDLHSHTTASDGCLTPEALVHRAVEMRVGTLAITDHDTTAAIAPAREEISRSGLALNLIPGVEISTVWENHEIHIVGLNIDITHPLMCEFLAQQTERRNQRAQLIAERLEKAQIPGALEGAQRLAQGGAVTRGHFARFLVECGKASSMADVFKKYLARGKTGYVPPQWCTIEQAIDVIHHSGGKAVLAHPGRYNLSAKWLKRLVAHFAEHHGDAMEVAQCQQSPNERTQLAALARQHHLWASQGSDFHQPCPWIELGRKLWLPAGVEGVWQLWEQPQNTTEREL,4.2 ± 0.46,2.69 ± 0.6,2,4.05 ± 1.8,1.76 ± 0.21,1.42 ± 0.78,3.06,5.96,2.24 ± 0.19,2.55 ± 0.59,2.72,4.57 ± 0.45
MSDTTELVDLAVIFPDLEIELKYACADNITGKAIYQQARCLLHKDAITALAKSISIAQLSGLQLVIYDAYRPQQAQAMLWQACPDPQYVVDVTVGSNHSRGTAIDLTLRDEHGNILDMGAGFDEMHERSHAYHPSVPPAAQRNRLLLNAIMTGGGFVGISSEWWHFELPQAASYPLLADQFSCFISPGTQHVS,5.51 ± 0.24,1.76,2.69 ± 0.14,3.64 ± 0.33,1.89 ± 0.17,0.884,1.97 ± 0.47,,2.72 ± 0.22,4.71 ± 0.84,,
MSDVAETLDPLRLPLQGERLIEASAGTGKTFTIAALYLRLLLGLGGSAAFPRPLTVEELLVVTFTEAATAELRGRIRSNIHELRIACLRETTDNPLYERLLEEIDDKAQAAQWLLLAERQMDEAAVFTIHGFCQRMLNLNAFESGMLFEQQLIEDESLLRYQACADFWRRHCYPLPREIAQVVFETWKGPQALLRDINRYLQGEAPVIKAPPPDDETLASRHAQIVARIDTVKQQWRDAVGELDALIESSGIDRRKFNRSNQAKWIDKISAWAEEETNSYQLPESLEKFSQRFLEDRTKAGGETPRHPLFEAIDQLLAEPLSIRDLVITRALAEIRETVAREKRRRGELGFDDMLSRLDSALRSESGEVLAAAIRTRFPVAMIDEFQDTDPQQYRIFRRIWHHQPETALLLIGDPKQAIYAFRGADIFTYMKARSEVHAHYTLDTNWRSAPGMVNSVNKLFSQTDDAFMFREIPFIPVKSAGKNQALRFVFKGETQPAMKMWLMEGESCGVGDYQSTMAQVCAAQIRDWLQAGQRGEALLMNGDDARPVRASDISVLVRSRQEAAQVRDALTLLEIPSVYLSNRDSVFETLEAQEMLWLLQAVMTPERENTLRSALATSMMGLNALDIETLNNDEHAWDVVVEEFDGYRQIWRKRGVMPMLRALMSARNIAENLLATAGGERRLTDILHISELLQEAGTQLESEHALVRWLSQHILEPDSNASSQQMRLESDKHLVQIVTIHKSKGLEYPLVWLPFITNFRVQEQAFYHDRHSFEAVLDLNAAPESVDLAEAERLAEDLRLLYVALTRSVWHCSLGVAPLVRRRGDKKGDTDVHQSALGRLLQKGEPQDAAGLRTCIEALCDDDIAWQTAQTGDNQPWQVNDVSTAELNAKTLQRLPGDNWRVTSYSGLQQRGHGIAQDLMPRLDVDAAGVASVVEEPTLTPHQFPRGASPGTFLHSLFEDLDFTQPVDPNWVREKLELGGFESQWEPVLTEWITAVLQAPLNETGVSLSQLSARNKQVEMEFYLPISEPLIASQLDTLIRQFDPLSAGCPPLEFMQVRGMLKGFIDLVFRHEGRYYLLDYKSNWLGEDSSAYTQQAMAAAMQAHRYDLQYQLYTLALHRYLRHRIADYDYEHHFGGVIYLFLRGVDKEHPQQGIYTTRPNAGLIALMDEMFAGMTLEEA,5.03 ± 0.26,4.28 ± 0.35,3.64 ± 0.075,3.84 ± 0.3,3.72 ± 0.33,3.13 ± 0.34,5.03 ± 0.71,13.2 ± 3.9,3.87 ± 0.3,5.71 ± 0.92,6.9 ± 0.91,10.4 ± 0.56
MSDVLRPYRDLFPQIGQRVMIDDSSVVIGDVRLADDVGIWPLVVIRGDVHYVQIGARTNIQDGSMLHVTHKSSYNPDGNPLTIGEDVTVGHKVMLHGCTIGNRVLVGMGSILLDGAIVEDDVMIGAGSLVPQNKRLESGYLYLGSPVKQIRPLSDEEKAGLRYSANNYVKWKDEYLDQGNQTQP [P0A9W9],,5.73 ± 1.7,5.34 ± 1.1,5.32 ± 0.6,4.72 ± 0.17,3.04 ± 0.14,,10 ± 2,5.36 ± 0.53,8.69 ± 0.58,6.25 ± 0.13,14.3 ± 1.3

# — the supplement of paper PMC11246515
